Consider two molecules from US20230250157A1.

In the test the target is sarbecoviruses tested (pseudovirus spikes). Put plainly: cell-based or functional assay.

B1: HSW-2 (antibody, V domains shown)
VH: QVQLQQSGPELVKPGASVKISCKASGYVFSTSWMSWVKQRPGEGPEWIGRIYPRDGHSSSTGKFKDKATLTADKSSNTAYIHLSSLTSEDSAVYFCARDYGYYYFDYWGQGTTLTVSS
VL: DIQMTQSPASLSASVGEAVTITCRLSENVYSFLAWYQQKQGKSPQLLVYRAKTLAEGVPSRFSGSGSGTQFSLKINSLQPEDFGTYYCQHHYGTPPTFGGGTKLEIK
B1 came in with a pseudovirus neutralization IC50 above 10 µg/mL.

B2: HSW-1 (antibody, V domains shown)
VH: QVQLQQPGAELVKPGTSMKLSCKASGYTFTSYWMHWVKQRPGQGLEWIGMIHPNSGSTKYNENFKSKATLTVDKSSSTAYMQFSSLTSEDSAVYYCVRSGSYYGTTYDYFDYWGQGTTLTVSS
VL: DIVLTQSPASLAVSLGQRATISCRASESVNIYGNSFMHWYQQKPGQPPKLLIFRASNLESGIPVRFSGSGSRTDFTLTINPVEADDVATYYCHQSNEDPFTFGSGTKLEIK
For B2, the pseudovirus neutralization IC50 was above 10 µg/mL.
